Broadly, the Kd is the free concentration of one partner at which half of the binding sites on the other are occupied at equilibrium, for simple one-to-one binding. A low value points to higher affinity.

A value given as a limit tells only on which side of the number the result lay.

One assay addresses human growth hormone receptor on IM-9 cells (human) (UniProt P10912). In words: cell-based or functional assay.
Sequence of UniProt P10912 (P10912 19-638): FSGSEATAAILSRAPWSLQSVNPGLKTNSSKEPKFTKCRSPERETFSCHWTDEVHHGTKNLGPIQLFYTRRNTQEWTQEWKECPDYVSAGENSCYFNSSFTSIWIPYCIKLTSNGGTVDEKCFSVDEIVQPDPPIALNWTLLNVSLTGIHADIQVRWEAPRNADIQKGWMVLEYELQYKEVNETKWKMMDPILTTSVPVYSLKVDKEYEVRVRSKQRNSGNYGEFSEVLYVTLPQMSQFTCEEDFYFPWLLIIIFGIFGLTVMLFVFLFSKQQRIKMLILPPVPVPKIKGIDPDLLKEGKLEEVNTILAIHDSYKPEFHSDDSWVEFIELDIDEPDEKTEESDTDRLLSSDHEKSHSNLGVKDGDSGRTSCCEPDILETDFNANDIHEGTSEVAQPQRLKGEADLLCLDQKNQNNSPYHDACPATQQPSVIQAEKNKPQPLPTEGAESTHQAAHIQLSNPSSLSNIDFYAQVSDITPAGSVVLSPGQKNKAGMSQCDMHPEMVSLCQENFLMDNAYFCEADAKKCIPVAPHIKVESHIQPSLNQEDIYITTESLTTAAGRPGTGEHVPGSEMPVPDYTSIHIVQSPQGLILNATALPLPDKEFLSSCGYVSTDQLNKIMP
For the substance “rat growth hormone, wild type (from UniProt P01244 27-216) (ligand)”, the EC50 of STAT5 phosphorylation in IM-9 cells (phospho-STAT5 MFI, flow cytometry) was over 200000 nM.

The next assay has as its target hIFN receptor. In words: BIAcore biosensor; orientation not stated. (In general: Surface plasmon resonance follows binding to a sensor surface in real time, without labels.)
As for “6His-R149pAF IFNα2A (from UniProt P01563 24-188) (ligand)”, the equilibrium dissociation constant (Kd) is 75 nM.

With “6His-H34pAF IFNα2A (from UniProt P01563 24-188) (ligand)”, the Kd amounted to 4 nM.

In the case of “6His-I100pAF IFNα2A (from UniProt P01563 24-188) (ligand)”, the Kd stood at 10 nM.

Regarding “6His-E96pAF IFNα2A (from UniProt P01563 24-188) (ligand)”, the dissociation constant Kd turned out to be 12 nM.

For the substance “6His-K31pAF IFNα2A (from UniProt P01563 24-188) (ligand)”, the Kd came out at 52 nM.

“Sigma IFNαA (from UniProt P01563 24-188) (ligand)” came in with an equilibrium dissociation constant (Kd) of 11 nM. This Kd lies about 4.7-fold lower than the previous one.

“6His-R12pAF IFNα2A (from UniProt P01563 24-188) (ligand)” displayed a Kd of 8 nM.

The substance “6His-E113pAF IFNα2A (from UniProt P01563 24-188) (ligand)” yielded a Kd of 19 nM.

In turn, “6His-K134pAF IFNα2A (from UniProt P01563 24-188) (ligand)” gave a Kd of 10 nM.

In the case of “6His-E159pAF IFNα2A (from UniProt P01563 24-188) (ligand)”, the dissociation constant (Kd) stood at 3.5 nM.

“6His-P109pAF IFNα2A (from UniProt P01563 24-188) (ligand)” showed a Kd of 17 nM.

In the case of “6His-F38S IFNα2A (from UniProt P01563 24-188) (ligand)”, the Kd was determined as 42 nM. This Kd is about 2.5-fold higher than that of the substance before.

With “C1S IFNa2A (from UniProt P01563 24-188) (ligand)”, the Kd is 11 nM.

In turn, “6His-L110pAF IFNα2A (from UniProt P01563 24-188) (ligand)” showed a dissociation constant Kd of 13 nM.

Substance “6His-R120pAF IFNα2A (from UniProt P01563 24-188) (ligand)” showed a Kd of 4 nM.

With “6His-K49pAF IFNα2A (from UniProt P01563 24-188) (ligand)”, the Kd came to 10 nM.

For “6His-L117pAF IFNα2A (from UniProt P01563 24-188) (ligand)”, the Kd turned out to be 8 nM.

For “6His-I24pAF IFNα2A (from UniProt P01563 24-188) (ligand)”, the dissociation constant (Kd) was found to be 5 nM. This Kd lies about 1.6-fold lower than the previous one.

Take “6His-E107pAF IFNα2A (from UniProt P01563 24-188) (ligand)”: the dissociation constant Kd is 5 nM.

“6His-IFNα2A (from UniProt P01563 24-188) (ligand)”: the Kd was determined as 6 nM.

“C1S E107pAF IFNα2A (from UniProt P01563 24-188) (ligand)” displayed a Kd of 9 nM.

Take “6His-R125pAF IFNα2A (from UniProt P01563 24-188) (ligand)”: the equilibrium dissociation constant (Kd) came to 19 nM.

In turn, “6His-P39pAF IFNα2A (from UniProt P01563 24-188) (ligand)” registered a dissociation constant (Kd) of 17 nM. The Kd values of the last two substances are within 1.5-fold of each other.

“6His-Q48pAF IFNα2A (from UniProt P01563 24-188) (ligand)” displayed a Kd of 17 nM.

On to “6His-G37pAF IFNα2A (from UniProt P01563 24-188) (ligand)”, for which the Kd was found to be 12 nM.

In the case of “6His-F27pAF IFNα2A (from UniProt P01563 24-188) (ligand)”, the dissociation constant Kd amounted to 8 nM.

For “6His-Y89pAF IFNα2A (from UniProt P01563 24-188) (ligand)”, the Kd was found to be 9 nM.

“6His-Y122S IFNα2A (from UniProt P01563 24-188) (ligand)” yielded a Kd of 300 nM. Compared with the last substance, the Kd is about 33-fold higher.

In the case of “6His-T106pAF IFNα2A (from UniProt P01563 24-188) (ligand)”, the equilibrium dissociation constant (Kd) was 8 nM.

The record behind these values is patent publication US20090018029A1.
